Among the data in the Immune Epitope Database (IEDB) are Kd and IC50 values, retold here.

Test [1] concerns the target HLA-A*11:01. Put plainly: IEDB peptide-MHC binding, purified MHC/competitive/fluorescence; filed as Kd, often an IC50 or EC50 that approximates it; ≥ and ≤ were set here for values at or beyond the usual limits of such assays.
Test [2] concerns the target HLA-A*68:02. Put plainly: IEDB peptide-MHC binding, purified MHC/direct/fluorescence; filed as Kd, often an IC50 or EC50 that approximates it; ≥ and ≤ were set here for values at or beyond the usual limits of such assays.
The target in test [3] is HLA-A*02:19. The test is described as above.
Test [4] deals with HLA-B*15:01. The test is described as above. The settings on record: source organism: Itapua hantavirus.
Test [5] concerns the target HLA-A*24:03. The test is described as above.
The target in test [6] is HLA-A*02:12. The test is described as above.
Test [7] addresses HLA-A*02:03. The test is described as above.
Test [8] addresses HLA-A*02:11. Described as above.
For test [9], the target named is HLA-A*03:01. The description is as above.
Test [10] deals with HLA-A*02:16. Described as above.
Test [11] addresses HLA-B*15:17. Put plainly: IEDB peptide-MHC binding, purified MHC/competitive/fluorescence; filed as Kd, often an IC50 or EC50 that approximates it; ≥ and ≤ were set here for values at or beyond the usual limits of such assays.
The target in test [12] is HLA-B*39:01. The test is described as above.
In test [13] the target is HLA-B*46:01. Described as above.
Test [14] addresses HLA-A*02:01. The test is described as above.
The target in test [15] is HLA-B*51:01. The description is as above.
In test [16] the target is HLA-B*57:01. The test is described as above.
The target of test [17] is HLA-B*27:03. The test is described as above.
For test [18], the target named is HLA-B*18:01. The description is as above.
In test [19] the target is HLA-A*69:01. The test is described as above.
For test [20], the target named is HLA-A*02:01. Put plainly: IEDB peptide-MHC binding, purified MHC/competitive/fluorescence; ≥ and ≤ were set here for values at or beyond the usual limits of such assays.
In test [21] the target is HLA-B*15:01. Described as above. The settings on record: source organism: Sudan ebolavirus.
The target in test [22] is HLA-A*03:01. The description is as above.
Test [23] deals with HLA-A*11:01. The description is as above.
For test [24], the target named is HLA-A*01:01. Put plainly: IEDB peptide-MHC binding, purified MHC/competitive/fluorescence; filed as Kd, often an IC50 or EC50 that approximates it; ≥ and ≤ were set here for values at or beyond the usual limits of such assays.
Test [25] has as its target HLA-A*26:01. Put plainly: IEDB peptide-MHC binding, purified MHC/direct/fluorescence; filed as Kd, often an IC50 or EC50 that approximates it; ≥ and ≤ were set here for values at or beyond the usual limits of such assays. The settings on record: source organism: Hantavirus Monongahela-3.
Test [26] concerns the target HLA-A*29:02. The test is described as above.
In test [27] the target is HLA-A*26:01. Put plainly: IEDB peptide-MHC binding, purified MHC/competitive/fluorescence; filed as Kd, often an IC50 or EC50 that approximates it; ≥ and ≤ were set here for values at or beyond the usual limits of such assays.
Test [28] deals with HLA-A*02:12. The description is as above. The settings on record: source organism: Shigella dysenteriae Sd197.
Test [29] has as its target HLA-A*24:03. The description is as above. The settings on record: source organism: Lechiguanas virus.
For test [30], the target named is HLA-A*31:01. Described as above. The settings on record: source organism: Encephalitozoon cuniculi GB-M1.
Test [31] has as its target HLA-A*03:01. Described as above. The settings on record: source organism: Encephalitozoon cuniculi GB-M1.
Where [32] appears, read: source organism: Araucaria virus.
[33] abbreviates: source organism: Sudan ebolavirus.
Where [34] appears, read: source organism: Zaire ebolavirus.
Setting [35] is: source organism: Vaccinia virus.
Setting [36] is: source organism: New York virus.
Setting [37] is: source organism: Vaccinia virus WR.
The mark [38] stands for this setting: source organism: Salmonella enterica subsp. enterica serovar Typhi.
[39] abbreviates: source organism: Rio Mamore hantavirus.
The mark [40] stands for this setting: source organism: Lechiguanas virus.

By Kd is commonly meant a measure of binding affinity in units of concentration. Read a high Kd as lower affinity. As for MVAYMLER, in test [1] (source organism: Paramagnetospirillum magnetotacticum MS-1), the Kd came to 3.25 µM. That is a single-digit micromolar value.
For the sequence AFMATNKAY, the Kd was ≥ 20 µM in test [2] (setting [32]); ≥ 20 µM in test [3] (setting [32]); 0.0944 µM in [4]; ≥ 20 µM in [5] (setting [32]); ≥ 20 µM in test [6] (setting [32]); ≥ 20 µM in [7] (setting [32]). The Kd in [8] (setting [32]), in test [9] (setting [32]), in [10] (setting [32]), in test [11] (setting [32]), in test [12] (setting [32]) and in test [13] (setting [32]) was ≥ 20 µM in each case. In addition, the Kd in test [14] (setting [32]), in test [15] (setting [32]), in test [16] (setting [32]), in test [17] (setting [32]), in test [18] (setting [32]) and in [19] (setting [32]) was ≥ 20 µM throughout.
For ITDRLFFK, the Kd in test [1] (source organism: Influenza A virus (A/California/04/2009(H1N1))) turned out to be 0.175 µM. In other words, the sub-micromolar range.
What is called IC50 is the point on the concentration scale where inhibition reaches its midpoint. Turning to VIYRGVNFA, the IC50 in test [20] (setting [33]) is 3.89 µM; in test [21], ≥ 89.1 µM; in [22] (setting [33]) it was 5.02 µM; in test [23] (setting [33]) it was 25.1 µM.
As to GVRGFPRCR, the IC50 in test [22] (setting [33]) amounted to 1.12 µM; in [23] (setting [33]) it was 33.2 µM.
Consider FTDPEIVAE, for which, in test [24] (source organism: Escherichia coli O139:H28 str. E24377A), the Kd is ≥ 20 µM.
For the sequence TQVEQHHRR, the IC50 is ≥ 138 µM in [22] (setting [34]) and 1.67 µM in test [23] (setting [34]).
For the sequence SLMEMDYER, the IC50 in test [20] (setting [35]) is 2.2 µM; in [22] (setting [35]) it was ≥ 155 µM; in [23] (setting [35]), 1.9 µM.
As for AGLITGGRR, the figures for the IC50 in [22] (setting [34]) and in test [23] (setting [34]) were 69.9 µM and 6.55 µM, respectively.
As to FVKDWMDRI, the Kd was 0.0656 µM in test [25]; ≥ 20 µM in [26] (source organism: Choclo virus); ≥ 20 µM in [3] (source organism: Choclo virus); ≥ 20 µM in test [5] (source organism: Choclo virus); ≥ 20 µM in test [6] (source organism: Choclo virus); ≥ 20 µM in test [9] (source organism: Choclo virus). The Kd in test [10] (source organism: Choclo virus), in test [11] (setting [36]), in [12] (setting [36]), in test [13] (setting [36]), in test [14] (setting [36]) and in [15] (setting [36]) was ≥ 20 µM each time. Moreover, the Kd in test [16] (setting [36]), in test [17] (setting [36]), in test [18] (setting [36]) and in test [19] (setting [36]) was ≥ 20 µM throughout.
Turning to AFYTRVLKP, the values for the IC50 in test [22] (setting [37]) and in test [23] (setting [37]) were ≥ 202 µM and 24.2 µM, respectively.
Consider SMIYFFHHY, for which, in [24] (source organism: Homo sapiens), the Kd is ≥ 20 µM.
Turning to MVEASGGRY, the Kd in [27] (setting [38]) was determined as 1.42 µM; in test [24] (setting [38]), 0.122 µM.
SVFSRPLPL: the Kd in [14] (source organism: Shigella dysenteriae Sd197) is ≤ 0.0001 µM; in [28], 0.184 µM.
Regarding LQPSDTLLF, the Kd in [2] (setting [39]), in test [26] (setting [39]), in test [3] (setting [39]), in [6] (setting [39]), in test [7] (setting [39]) and in test [8] (setting [39]) was ≥ 20 µM each time. For the same sequence, the Kd in [9] (setting [39]), in test [10] (setting [39]), in test [11] (setting [40]), in [27] (setting [40]), in test [12] (setting [40]) and in [13] (setting [40]) was ≥ 20 µM in each case. In addition, the Kd was ≥ 20 µM in test [14] (setting [40]); ≥ 20 µM in [15] (setting [40]); 0.0049 µM in test [29]; ≥ 20 µM in [16] (setting [40]); ≥ 20 µM in test [17] (setting [40]); ≥ 20 µM in test [18] (setting [40]). The Kd in test [19] (setting [40]) was ≥ 20 µM.
For CVNDGGLFY, the Kd in test [30] was determined as 0.692 µM; in test [31], 1.01 µM; in test [1] (source organism: Encephalitozoon cuniculi GB-M1), 0.11 µM.
